# B1: 14-3-3 protein sigma (Homo sapiens), P31947 (parent)
# chain: MERASLIQKAKLAEQAERYEDMAAFMKGAVEKGEELSCEERNLLSVAYKNVVGGQRAAWRVLSSIEQKSNEEGSEEKGPEVREYREKVETELQGVCDTVLGLLDSHLIKEAGDAESRVFYLKMKGDYYRYLAEVATGDDKKRIIDSARSAYQEAMDISKKEMPPTNPIRLGLALNFSVFHYEIANSPEEAISLAKTTFDEAMADLHTLSEDSYKDSTLIMQLLRDNLTLWTADNAGEEGGEAPQEPQS
# partner: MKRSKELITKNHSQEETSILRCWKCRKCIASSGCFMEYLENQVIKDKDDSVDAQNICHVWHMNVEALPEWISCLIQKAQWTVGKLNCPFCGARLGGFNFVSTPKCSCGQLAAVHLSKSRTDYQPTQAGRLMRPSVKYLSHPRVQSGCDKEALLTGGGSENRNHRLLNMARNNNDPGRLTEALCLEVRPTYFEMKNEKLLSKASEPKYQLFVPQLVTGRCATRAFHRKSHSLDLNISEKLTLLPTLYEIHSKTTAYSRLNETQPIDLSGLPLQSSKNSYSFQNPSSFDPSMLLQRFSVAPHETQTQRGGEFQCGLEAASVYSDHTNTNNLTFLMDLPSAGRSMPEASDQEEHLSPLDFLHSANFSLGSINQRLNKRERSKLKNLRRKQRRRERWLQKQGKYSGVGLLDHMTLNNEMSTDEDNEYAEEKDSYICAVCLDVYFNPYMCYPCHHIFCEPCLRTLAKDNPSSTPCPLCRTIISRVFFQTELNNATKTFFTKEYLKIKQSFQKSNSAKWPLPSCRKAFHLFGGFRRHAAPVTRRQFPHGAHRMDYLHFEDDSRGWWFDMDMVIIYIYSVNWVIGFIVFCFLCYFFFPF
# B2: 14-3-3 protein sigma (Homo sapiens), P31947 (parent)
# chain: B1 chain
# partner: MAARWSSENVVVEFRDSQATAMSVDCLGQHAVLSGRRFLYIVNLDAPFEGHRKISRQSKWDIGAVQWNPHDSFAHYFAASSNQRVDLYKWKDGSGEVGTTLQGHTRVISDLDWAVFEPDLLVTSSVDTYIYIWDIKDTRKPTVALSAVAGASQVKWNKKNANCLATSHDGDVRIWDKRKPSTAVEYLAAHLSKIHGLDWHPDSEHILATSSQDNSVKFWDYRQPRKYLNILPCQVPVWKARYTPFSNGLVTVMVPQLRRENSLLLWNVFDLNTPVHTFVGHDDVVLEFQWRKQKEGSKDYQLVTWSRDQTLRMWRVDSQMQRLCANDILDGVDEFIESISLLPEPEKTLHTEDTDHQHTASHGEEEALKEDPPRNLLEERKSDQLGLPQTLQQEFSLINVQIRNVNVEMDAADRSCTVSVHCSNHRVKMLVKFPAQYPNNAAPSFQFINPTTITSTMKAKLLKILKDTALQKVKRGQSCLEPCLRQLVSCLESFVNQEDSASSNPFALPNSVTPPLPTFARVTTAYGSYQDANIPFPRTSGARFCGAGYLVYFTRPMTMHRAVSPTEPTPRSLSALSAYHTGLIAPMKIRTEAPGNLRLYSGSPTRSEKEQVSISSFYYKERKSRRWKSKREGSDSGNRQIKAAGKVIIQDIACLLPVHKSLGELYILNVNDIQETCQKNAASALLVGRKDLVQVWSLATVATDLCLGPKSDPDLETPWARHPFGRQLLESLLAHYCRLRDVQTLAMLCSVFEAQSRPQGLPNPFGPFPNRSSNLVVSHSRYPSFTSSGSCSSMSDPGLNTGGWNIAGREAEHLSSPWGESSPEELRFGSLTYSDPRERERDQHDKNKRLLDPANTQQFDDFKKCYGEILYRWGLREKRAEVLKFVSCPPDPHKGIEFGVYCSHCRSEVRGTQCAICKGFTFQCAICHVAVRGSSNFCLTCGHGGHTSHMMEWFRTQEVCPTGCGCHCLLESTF
# B3: 14-3-3 protein sigma (Homo sapiens), P31947 (parent)
# chain: B1 chain
# partner: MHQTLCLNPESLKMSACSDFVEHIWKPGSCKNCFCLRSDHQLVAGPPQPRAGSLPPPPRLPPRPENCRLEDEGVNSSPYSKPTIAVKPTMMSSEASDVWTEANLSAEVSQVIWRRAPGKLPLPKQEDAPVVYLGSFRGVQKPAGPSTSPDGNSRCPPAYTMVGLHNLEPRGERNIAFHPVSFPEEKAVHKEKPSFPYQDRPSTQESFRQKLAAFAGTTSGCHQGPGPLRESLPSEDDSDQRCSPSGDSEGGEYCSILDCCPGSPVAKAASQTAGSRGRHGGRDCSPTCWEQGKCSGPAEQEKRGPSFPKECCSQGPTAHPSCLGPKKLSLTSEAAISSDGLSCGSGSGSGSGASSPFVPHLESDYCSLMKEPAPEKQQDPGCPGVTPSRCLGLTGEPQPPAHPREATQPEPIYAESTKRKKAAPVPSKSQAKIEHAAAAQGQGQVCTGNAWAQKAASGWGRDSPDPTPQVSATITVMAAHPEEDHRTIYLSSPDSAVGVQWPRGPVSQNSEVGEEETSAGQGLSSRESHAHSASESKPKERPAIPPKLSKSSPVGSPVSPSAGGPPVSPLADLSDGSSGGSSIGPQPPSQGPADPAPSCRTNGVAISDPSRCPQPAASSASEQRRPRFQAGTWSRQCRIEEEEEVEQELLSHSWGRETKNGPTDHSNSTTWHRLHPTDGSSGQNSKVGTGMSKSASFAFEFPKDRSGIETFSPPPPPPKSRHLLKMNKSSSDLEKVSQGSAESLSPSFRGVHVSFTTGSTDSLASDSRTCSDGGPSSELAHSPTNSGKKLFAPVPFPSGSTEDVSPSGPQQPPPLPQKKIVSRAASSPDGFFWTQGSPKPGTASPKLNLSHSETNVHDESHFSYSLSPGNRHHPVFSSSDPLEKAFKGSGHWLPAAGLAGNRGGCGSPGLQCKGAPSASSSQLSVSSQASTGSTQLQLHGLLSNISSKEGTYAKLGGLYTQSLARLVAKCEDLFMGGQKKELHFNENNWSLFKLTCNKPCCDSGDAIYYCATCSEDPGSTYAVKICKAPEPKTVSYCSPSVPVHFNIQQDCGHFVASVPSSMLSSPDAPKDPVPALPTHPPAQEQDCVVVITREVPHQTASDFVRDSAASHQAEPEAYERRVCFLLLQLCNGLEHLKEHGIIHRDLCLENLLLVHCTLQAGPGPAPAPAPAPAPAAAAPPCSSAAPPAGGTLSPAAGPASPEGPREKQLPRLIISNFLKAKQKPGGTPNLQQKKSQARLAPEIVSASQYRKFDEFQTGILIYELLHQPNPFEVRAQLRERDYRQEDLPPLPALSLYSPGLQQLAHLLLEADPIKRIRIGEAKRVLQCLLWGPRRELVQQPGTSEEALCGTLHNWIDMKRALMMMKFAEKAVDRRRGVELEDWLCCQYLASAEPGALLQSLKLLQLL
# B4: 14-3-3 protein sigma (Homo sapiens), P31947 (parent)
# chain: B1 chain
# partner: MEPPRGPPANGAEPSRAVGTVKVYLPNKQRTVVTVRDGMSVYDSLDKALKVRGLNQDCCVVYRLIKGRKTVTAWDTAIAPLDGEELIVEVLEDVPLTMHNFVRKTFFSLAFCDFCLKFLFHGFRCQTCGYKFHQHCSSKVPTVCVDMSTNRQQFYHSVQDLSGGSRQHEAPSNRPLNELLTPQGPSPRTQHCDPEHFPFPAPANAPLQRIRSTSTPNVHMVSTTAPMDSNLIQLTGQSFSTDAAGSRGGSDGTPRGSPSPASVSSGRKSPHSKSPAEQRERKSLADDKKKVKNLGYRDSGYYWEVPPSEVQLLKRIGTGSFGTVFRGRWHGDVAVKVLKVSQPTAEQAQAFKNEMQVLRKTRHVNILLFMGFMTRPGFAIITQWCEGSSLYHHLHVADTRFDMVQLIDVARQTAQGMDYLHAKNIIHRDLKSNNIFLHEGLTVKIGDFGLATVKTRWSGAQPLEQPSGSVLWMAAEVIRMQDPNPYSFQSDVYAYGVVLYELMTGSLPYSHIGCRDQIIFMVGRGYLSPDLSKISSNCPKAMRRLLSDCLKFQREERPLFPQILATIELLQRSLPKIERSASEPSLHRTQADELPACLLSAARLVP
# B5: 14-3-3 protein sigma (Homo sapiens), P31947 (parent)
# chain: B1 chain
# partner: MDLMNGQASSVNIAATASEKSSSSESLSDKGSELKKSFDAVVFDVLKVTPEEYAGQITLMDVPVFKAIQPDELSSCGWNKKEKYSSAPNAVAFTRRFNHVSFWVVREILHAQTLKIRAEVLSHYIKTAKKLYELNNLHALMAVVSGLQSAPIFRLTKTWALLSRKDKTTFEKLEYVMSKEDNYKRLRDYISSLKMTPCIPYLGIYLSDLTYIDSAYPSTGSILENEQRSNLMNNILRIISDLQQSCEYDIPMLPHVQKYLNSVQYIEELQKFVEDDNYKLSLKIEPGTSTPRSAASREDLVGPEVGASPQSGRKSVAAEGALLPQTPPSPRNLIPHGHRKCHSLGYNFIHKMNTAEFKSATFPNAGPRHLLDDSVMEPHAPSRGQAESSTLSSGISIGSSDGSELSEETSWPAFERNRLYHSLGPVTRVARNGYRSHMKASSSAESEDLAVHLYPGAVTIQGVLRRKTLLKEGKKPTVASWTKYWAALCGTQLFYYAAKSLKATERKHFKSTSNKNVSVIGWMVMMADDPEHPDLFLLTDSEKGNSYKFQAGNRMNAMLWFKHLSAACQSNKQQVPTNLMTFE
# B6: 14-3-3 protein sigma (Homo sapiens), P31947 (parent)
# chain: B1 chain
# partner: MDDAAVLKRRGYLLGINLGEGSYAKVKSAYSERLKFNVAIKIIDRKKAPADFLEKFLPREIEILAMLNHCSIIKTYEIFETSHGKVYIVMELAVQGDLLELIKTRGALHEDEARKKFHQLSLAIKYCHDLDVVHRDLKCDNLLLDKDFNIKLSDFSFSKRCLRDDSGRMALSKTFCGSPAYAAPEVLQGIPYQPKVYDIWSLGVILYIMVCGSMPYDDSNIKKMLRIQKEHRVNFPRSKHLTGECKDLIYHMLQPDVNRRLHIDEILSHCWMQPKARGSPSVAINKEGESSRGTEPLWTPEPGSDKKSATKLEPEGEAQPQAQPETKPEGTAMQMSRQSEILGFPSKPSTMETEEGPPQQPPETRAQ
# B7: 14-3-3 protein sigma (Homo sapiens), P31947 (parent)
# chain: B1 chain
# partner: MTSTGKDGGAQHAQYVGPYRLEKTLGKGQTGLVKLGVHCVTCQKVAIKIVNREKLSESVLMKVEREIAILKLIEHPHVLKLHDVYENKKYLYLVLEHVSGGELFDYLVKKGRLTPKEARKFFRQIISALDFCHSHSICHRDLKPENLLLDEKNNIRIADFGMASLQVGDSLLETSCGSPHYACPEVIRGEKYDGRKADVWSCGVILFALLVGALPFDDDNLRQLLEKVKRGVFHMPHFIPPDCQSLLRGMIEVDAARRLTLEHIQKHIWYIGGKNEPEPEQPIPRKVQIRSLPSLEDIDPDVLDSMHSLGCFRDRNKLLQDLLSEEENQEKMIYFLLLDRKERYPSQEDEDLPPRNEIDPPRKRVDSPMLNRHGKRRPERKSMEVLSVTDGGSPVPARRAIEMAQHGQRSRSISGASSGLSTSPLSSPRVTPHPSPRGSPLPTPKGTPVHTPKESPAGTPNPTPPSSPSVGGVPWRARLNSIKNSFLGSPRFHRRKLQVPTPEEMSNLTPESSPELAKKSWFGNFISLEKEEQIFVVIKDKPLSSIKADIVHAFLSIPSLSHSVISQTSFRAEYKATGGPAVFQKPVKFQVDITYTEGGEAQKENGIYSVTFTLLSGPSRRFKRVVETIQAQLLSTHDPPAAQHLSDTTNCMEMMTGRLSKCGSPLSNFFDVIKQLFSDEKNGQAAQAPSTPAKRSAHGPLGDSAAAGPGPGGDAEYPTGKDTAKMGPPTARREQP
# B8: 14-3-3 protein sigma (Homo sapiens), P31947 (parent)
# chain: B1 chain
# partner: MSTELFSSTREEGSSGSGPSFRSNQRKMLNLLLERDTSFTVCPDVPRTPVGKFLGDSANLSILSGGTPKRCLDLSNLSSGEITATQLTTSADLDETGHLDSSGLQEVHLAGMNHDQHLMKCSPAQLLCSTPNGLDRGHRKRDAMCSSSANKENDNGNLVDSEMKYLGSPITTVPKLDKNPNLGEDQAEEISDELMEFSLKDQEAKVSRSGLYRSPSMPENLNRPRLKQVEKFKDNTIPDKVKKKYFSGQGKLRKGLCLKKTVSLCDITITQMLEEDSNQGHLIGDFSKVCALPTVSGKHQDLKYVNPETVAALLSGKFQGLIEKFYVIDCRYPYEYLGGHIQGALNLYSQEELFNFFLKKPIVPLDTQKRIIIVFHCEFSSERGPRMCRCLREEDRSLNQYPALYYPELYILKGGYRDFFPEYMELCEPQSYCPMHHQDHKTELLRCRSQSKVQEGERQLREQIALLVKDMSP
# Variants of: B1
# Settings: with rn180_human RNF180, Q86T96
row,Variant,effect of a mutation on the interaction
1,K49E;R56E;V178D,decreasing interaction strength

# Variants of: B2
# Settings: with wdr59_human WDR59, Q6PJI9
row,Variant,effect of a mutation on the interaction
1,K49E;R56E;V178D,decreasing interaction strength

# Variants of: B3
# Settings: with prag1_human PRAG1, Q86YV5
row,Variant,effect of a mutation on the interaction
1,K49E;R56E;V178D,decreasing interaction strength

# Variants of: B4
# Settings: with araf_human ARAF
row,Variant,effect of a mutation on the interaction
1,K49E;R56E;V178D,decreasing interaction strength

# Variants of: B5
# Settings: with rgps2_human RALGPS2, Q86X27
row,Variant,effect of a mutation on the interaction
1,K49E;R56E;V178D,decreasing interaction strength

# Variants of: B6
# Settings: with tssk1_human TSSK1B
row,Variant,effect of a mutation on the interaction
1,K49E;R56E;V178D,decreasing interaction strength

# Variants of: B7
# Settings: with brsk2_human BRSK2, Q8IWQ3
row,Variant,effect of a mutation on the interaction
1,K49E;R56E;V178D,decreasing interaction strength

# Variants of: B8
# Settings: with mpip3_human CDC25C
row,Variant,effect of a mutation on the interaction
1,K49E;R56E;V178D,decreasing interaction strength

# From IntAct's records for PubMed 36931259
